In paper PMC9482650, “Quantitative fragmentomics allow affinity mapping of interactomes” (Nature Communications, 2022):

T1: RADIL, Q96JH8
T1 sequence (Q96JH8 971-1071, limits assumed, looked up): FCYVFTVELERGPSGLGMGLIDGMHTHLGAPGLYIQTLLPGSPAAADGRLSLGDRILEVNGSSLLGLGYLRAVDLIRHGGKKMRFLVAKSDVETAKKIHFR

T2: GRIP1_7, Q9Y3R0
T2 sequence (Q9Y3R0 999-1096, limits assumed, looked up): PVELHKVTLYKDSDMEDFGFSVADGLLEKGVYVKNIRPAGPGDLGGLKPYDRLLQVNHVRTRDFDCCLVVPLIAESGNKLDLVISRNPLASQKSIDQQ

T3: RAPGEF6, Q8TEU7
T3 sequence (Q8TEU7 525-625, limits assumed, looked up): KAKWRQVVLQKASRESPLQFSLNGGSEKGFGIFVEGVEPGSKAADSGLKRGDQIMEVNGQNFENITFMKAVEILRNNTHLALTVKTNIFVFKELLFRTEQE

T4: MPP6, Q9NZW5
T4 sequence (Q9NZW5 125-219, limits assumed, looked up): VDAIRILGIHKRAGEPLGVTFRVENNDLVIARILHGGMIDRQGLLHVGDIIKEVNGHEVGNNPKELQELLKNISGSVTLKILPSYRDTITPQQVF

T5: MPDZ_5, O75970
T5 sequence (O75970 695-796, limits assumed, looked up): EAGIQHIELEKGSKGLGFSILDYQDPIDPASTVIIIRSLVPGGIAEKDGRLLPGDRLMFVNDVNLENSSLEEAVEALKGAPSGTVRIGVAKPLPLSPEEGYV

T6: MPDZ_10, O75970
T6 sequence (O75970 1624-1722, limits assumed, looked up): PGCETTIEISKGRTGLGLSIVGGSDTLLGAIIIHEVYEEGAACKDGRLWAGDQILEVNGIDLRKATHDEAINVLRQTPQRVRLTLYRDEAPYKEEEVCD

T7: CARD11, Q9BXL7
T7 sequence (Q9BXL7 662-765, limits assumed, looked up): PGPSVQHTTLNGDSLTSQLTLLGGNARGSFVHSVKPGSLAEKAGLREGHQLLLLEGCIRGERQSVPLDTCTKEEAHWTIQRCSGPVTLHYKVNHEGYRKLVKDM

T8: LRRC7, Q96NW7
T8 sequence (Q96NW7 1440-1537, limits assumed, looked up): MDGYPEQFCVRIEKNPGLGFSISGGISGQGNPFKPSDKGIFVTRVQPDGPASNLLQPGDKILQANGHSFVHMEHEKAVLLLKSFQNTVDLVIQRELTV

T9: MPP7, Q5T2T1
T9 sequence (Q5T2T1 134-230, limits assumed, looked up): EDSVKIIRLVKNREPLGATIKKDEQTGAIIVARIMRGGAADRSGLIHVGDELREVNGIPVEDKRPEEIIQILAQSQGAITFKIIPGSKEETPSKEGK

T10: DFNB31_1, Q9P202
T10 sequence (Q9P202 135-233, limits assumed, looked up): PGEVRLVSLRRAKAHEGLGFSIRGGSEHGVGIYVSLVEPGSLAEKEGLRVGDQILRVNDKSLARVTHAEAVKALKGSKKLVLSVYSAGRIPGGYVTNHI

T11: GRIP1_2, Q9Y3R0
T11 sequence (Q9Y3R0 145-248, limits assumed, looked up): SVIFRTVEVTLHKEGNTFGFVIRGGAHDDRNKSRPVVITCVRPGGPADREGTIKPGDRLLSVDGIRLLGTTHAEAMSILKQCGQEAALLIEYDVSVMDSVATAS

B1: RSRC2, Q7L4I2 (peptide)
chain: TSSMRGMDAV
B2: GPRC6A, Q5T6X5 (peptide)
chain: TLPRKRMSSI

biological target: MAGI3_2, Q5TCQ9; assay: holdup assay; design: key: below the threshold = too weak to quantify, mostly under pKd 3.1 to 4; details: plain residues with an end cap or a label only (N-terminal biotin on a linker: ado-ado)
Sequence (Q5TCQ9 398-503): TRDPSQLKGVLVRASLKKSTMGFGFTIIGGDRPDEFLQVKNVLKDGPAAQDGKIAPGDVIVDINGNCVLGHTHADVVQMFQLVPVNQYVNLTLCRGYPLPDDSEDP

Q: Which pKd does the source give for B1 here?
A: Its pKd is “below the threshold”.

Q: B2 was tested. Which pKd did it give?
A: Its pKd is 4.15.

biological target: T1, RADIL, Q96JH8; assay: holdup assay; design: key: below the threshold = too weak to quantify, mostly under pKd 3.1 to 4; details: plain residues with an end cap or a label only (N-terminal biotin on a linker: ado-ado)

Q: For B1, which pKd is on record?
A: Its pKd is “below the threshold”.

Q: B2 was tested. Which pKd did it give?
A: The pKd was “below the threshold”.

biological target: T2, GRIP1_7, Q9Y3R0; assay: holdup assay; design: key: below the threshold = too weak to quantify, mostly under pKd 3.1 to 4; details: plain residues with an end cap or a label only (N-terminal biotin on a linker: ado-ado)

Q: Which pKd does the source give for B1 here?
A: The pKd was “below the threshold”.

Q: For B2, which pKd is on record?
A: The pKd was “below the threshold”.

biological target: T3, RAPGEF6, Q8TEU7; assay: holdup assay; design: key: below the threshold = too weak to quantify, mostly under pKd 3.1 to 4; details: plain residues with an end cap or a label only (N-terminal biotin on a linker: ado-ado)

Q: Which pKd does the source give for B1 here?
A: Its pKd is “below the threshold”.

Q: For B2, which pKd is on record?
A: Its pKd is “below the threshold”.

biological target: GOPC, Q9HD26; assay: holdup assay; design: key: below the threshold = too weak to quantify, mostly under pKd 3.1 to 4; details: plain residues with an end cap or a label only (N-terminal biotin on a linker: ado-ado)

Q: With B1 as the binder, how does the pKd read?
A: The pKd was “below the threshold”.

Q: B2 was tested. Which pKd did it give?
A: The pKd was “below the threshold”.

biological target: IL16_1, Q14005; assay: holdup assay; design: key: below the threshold = too weak to quantify, mostly under pKd 3.1 to 4; details: plain residues with an end cap or a label only (N-terminal biotin on a linker: ado-ado)
Sequence (Q14005 210-306): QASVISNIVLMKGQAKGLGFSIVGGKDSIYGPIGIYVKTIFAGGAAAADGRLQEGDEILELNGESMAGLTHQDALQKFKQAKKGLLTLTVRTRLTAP

Q: How did the pKd turn out when B1 was run?
A: The pKd was “below the threshold”.

Q: Which pKd does the source give for B2 here?
A: The pKd was “below the threshold”.

biological target: FRMPD3, Q5JV73; assay: holdup assay; design: key: below the threshold = too weak to quantify, mostly under pKd 3.1 to 4; details: plain residues with an end cap or a label only (N-terminal biotin on a linker: ado-ado)
Sequence (Q5JV73 12-100): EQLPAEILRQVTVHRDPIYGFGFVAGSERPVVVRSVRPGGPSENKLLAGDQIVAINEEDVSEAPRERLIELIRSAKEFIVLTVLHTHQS

Q: With B1 as the binder, how does the pKd read?
A: Its pKd is “below the threshold”.

Q: How did the pKd turn out when B2 was run?
A: The pKd was “below the threshold”.

biological target: MAST1, Q9Y2H9; assay: holdup assay; design: key: below the threshold = too weak to quantify, mostly under pKd 3.1 to 4; details: plain residues with an end cap or a label only (N-terminal biotin on a linker: ado-ado)
Sequence (Q9Y2H9 962-1065): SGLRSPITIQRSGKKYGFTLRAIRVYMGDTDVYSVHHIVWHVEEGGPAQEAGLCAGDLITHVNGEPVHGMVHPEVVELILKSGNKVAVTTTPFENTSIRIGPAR

Q: For B1, which pKd is on record?
A: Its pKd is “below the threshold”.

Q: With B2 as the binder, how does the pKd read?
A: Its pKd is 3.6.

biological target: MAGI2_5, Q86UL8; assay: holdup assay; design: key: below the threshold = too weak to quantify, mostly under pKd 3.1 to 4; details: plain residues with an end cap or a label only (N-terminal biotin on a linker: ado-ado)
Sequence (Q86UL8 915-1017): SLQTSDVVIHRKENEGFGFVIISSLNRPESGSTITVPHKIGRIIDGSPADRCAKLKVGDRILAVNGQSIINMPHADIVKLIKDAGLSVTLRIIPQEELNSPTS

Q: B1 was tested. Which pKd did it give?
A: The pKd was “below the threshold”.

Q: For B2, which pKd is on record?
A: Its pKd is “below the threshold”.

biological target: DLG4_2, P78352; assay: holdup assay; design: key: below the threshold = too weak to quantify, mostly under pKd 3.1 to 4; details: plain residues with an end cap or a label only (N-terminal biotin on a linker: ado-ado)
Sequence (P78352 155-259): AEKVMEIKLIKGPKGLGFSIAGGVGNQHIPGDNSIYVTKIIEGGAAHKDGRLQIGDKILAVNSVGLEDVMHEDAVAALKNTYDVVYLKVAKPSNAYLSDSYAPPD

Q: For B1, which pKd is on record?
A: The pKd was “below the threshold”.

Q: With B2 as the binder, how does the pKd read?
A: Its pKd is “below the threshold”.

biological target: T4, MPP6, Q9NZW5; assay: holdup assay; design: key: below the threshold = too weak to quantify, mostly under pKd 3.1 to 4; details: plain residues with an end cap or a label only (N-terminal biotin on a linker: ado-ado)

Q: How did the pKd turn out when B1 was run?
A: Its pKd is 3.79.

Q: How did the pKd turn out when B2 was run?
A: Its pKd is “below the threshold”.

biological target: T5, MPDZ_5, O75970; assay: holdup assay; design: key: below the threshold = too weak to quantify, mostly under pKd 3.1 to 4; details: plain residues with an end cap or a label only (N-terminal biotin on a linker: ado-ado)

Q: How did the pKd turn out when B1 was run?
A: The pKd was “below the threshold”.

Q: For B2, which pKd is on record?
A: The pKd was “below the threshold”.

biological target: T6, MPDZ_10, O75970; assay: holdup assay; design: key: below the threshold = too weak to quantify, mostly under pKd 3.1 to 4; details: plain residues with an end cap or a label only (N-terminal biotin on a linker: ado-ado)

Q: Which pKd does the source give for B1 here?
A: The pKd was “below the threshold”.

Q: For B2, which pKd is on record?
A: The pKd was “below the threshold”.

biological target: T7, CARD11, Q9BXL7; assay: holdup assay; design: key: below the threshold = too weak to quantify, mostly under pKd 3.1 to 4; details: plain residues with an end cap or a label only (N-terminal biotin on a linker: ado-ado)

Q: With B1 as the binder, how does the pKd read?
A: Its pKd is “below the threshold”.

Q: How did the pKd turn out when B2 was run?
A: The pKd was “below the threshold”.

biological target: FRMPD4, Q14CM0; assay: holdup assay; design: key: below the threshold = too weak to quantify, mostly under pKd 3.1 to 4; details: plain residues with an end cap or a label only (N-terminal biotin on a linker: ado-ado)
Sequence (Q14CM0 67-160): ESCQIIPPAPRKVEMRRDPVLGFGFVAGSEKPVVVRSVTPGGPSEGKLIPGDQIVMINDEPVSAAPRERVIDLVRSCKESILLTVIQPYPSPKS

Q: With B1 as the binder, how does the pKd read?
A: Its pKd is “below the threshold”.

Q: How did the pKd turn out when B2 was run?
A: Its pKd is “below the threshold”.

biological target: GRIP2_6, Q9C0E4; assay: holdup assay; design: key: below the threshold = too weak to quantify, mostly under pKd 3.1 to 4; details: plain residues with an end cap or a label only (N-terminal biotin on a linker: ado-ado)
Sequence (Q9C0E4 648-740): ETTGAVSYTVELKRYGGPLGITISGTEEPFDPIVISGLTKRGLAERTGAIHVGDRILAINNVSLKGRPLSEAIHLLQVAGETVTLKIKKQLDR

Q: B1 was tested. Which pKd did it give?
A: Its pKd is “below the threshold”.

Q: How did the pKd turn out when B2 was run?
A: The pKd was “below the threshold”.

biological target: Inadl_2, Q8NI35; assay: holdup assay; design: key: below the threshold = too weak to quantify, mostly under pKd 3.1 to 4; details: plain residues with an end cap or a label only (N-terminal biotin on a linker: ado-ado)
Sequence (Q8NI35 238-335): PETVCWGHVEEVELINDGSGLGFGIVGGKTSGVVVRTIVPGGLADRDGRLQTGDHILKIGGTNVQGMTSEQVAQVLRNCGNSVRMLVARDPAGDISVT

Q: How did the pKd turn out when B1 was run?
A: The pKd was “below the threshold”.

Q: For B2, which pKd is on record?
A: Its pKd is “below the threshold”.

biological target: T8, LRRC7, Q96NW7; assay: holdup assay; design: key: below the threshold = too weak to quantify, mostly under pKd 3.1 to 4; details: plain residues with an end cap or a label only (N-terminal biotin on a linker: ado-ado)

Q: How did the pKd turn out when B1 was run?
A: The pKd was “below the threshold”.

Q: B2 was tested. Which pKd did it give?
A: Its pKd is “below the threshold”.

biological target: LDB3, O75112; assay: holdup assay; design: key: below the threshold = too weak to quantify, mostly under pKd 3.1 to 4; details: plain residues with an end cap or a label only (N-terminal biotin on a linker: ado-ado)
Sequence (O75112 1-94): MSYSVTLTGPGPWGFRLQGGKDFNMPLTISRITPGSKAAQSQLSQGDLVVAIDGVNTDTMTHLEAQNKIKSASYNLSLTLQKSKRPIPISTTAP

Q: B1 was tested. Which pKd did it give?
A: Its pKd is “below the threshold”.

Q: Which pKd does the source give for B2 here?
A: Its pKd is “below the threshold”.

biological target: HTRA2, O43464; assay: holdup assay; design: key: below the threshold = too weak to quantify, mostly under pKd 3.1 to 4; details: plain residues with an end cap or a label only (N-terminal biotin on a linker: ado-ado)
Sequence (O43464 355-458): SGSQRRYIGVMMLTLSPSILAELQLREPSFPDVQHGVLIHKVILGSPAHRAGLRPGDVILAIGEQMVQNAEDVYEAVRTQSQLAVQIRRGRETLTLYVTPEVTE

Q: B1 was tested. Which pKd did it give?
A: Its pKd is “below the threshold”.

Q: With B2 as the binder, how does the pKd read?
A: The pKd was “below the threshold”.

biological target: FRMPD2_2, Q68DX3; assay: holdup assay; design: key: below the threshold = too weak to quantify, mostly under pKd 3.1 to 4; details: plain residues with an end cap or a label only (N-terminal biotin on a linker: ado-ado)
Sequence (Q68DX3 944-1038): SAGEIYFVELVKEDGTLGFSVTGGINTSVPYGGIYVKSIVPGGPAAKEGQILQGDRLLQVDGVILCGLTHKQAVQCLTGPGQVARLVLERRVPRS

Q: With B1 as the binder, how does the pKd read?
A: The pKd was “below the threshold”.

Q: For B2, which pKd is on record?
A: Its pKd is “below the threshold”.

biological target: NHERF4_1, Q86UT5-2; assay: holdup assay; design: key: below the threshold = too weak to quantify, mostly under pKd 3.1 to 4; details: plain residues with an end cap or a label only (N-terminal biotin on a linker: ado-ado)
Sequence (Q86UT5 other isoform, or with tags, fused parts or gaps): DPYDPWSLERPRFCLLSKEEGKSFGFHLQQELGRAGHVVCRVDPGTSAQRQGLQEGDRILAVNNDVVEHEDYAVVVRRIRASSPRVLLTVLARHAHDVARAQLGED

Q: With B1 as the binder, how does the pKd read?
A: The pKd was 3.91.

Q: How did the pKd turn out when B2 was run?
A: Its pKd is “below the threshold”.

biological target: T9, MPP7, Q5T2T1; assay: holdup assay; design: key: below the threshold = too weak to quantify, mostly under pKd 3.1 to 4; details: plain residues with an end cap or a label only (N-terminal biotin on a linker: ado-ado)

Q: For B1, which pKd is on record?
A: The pKd was “below the threshold”.

Q: With B2 as the binder, how does the pKd read?
A: Its pKd is “below the threshold”.

biological target: T10, DFNB31_1, Q9P202; assay: holdup assay; design: key: below the threshold = too weak to quantify, mostly under pKd 3.1 to 4; details: plain residues with an end cap or a label only (N-terminal biotin on a linker: ado-ado)

Q: Which pKd does the source give for B1 here?
A: The pKd was “below the threshold”.

Q: How did the pKd turn out when B2 was run?
A: Its pKd is 3.59.

biological target: Inadl_4, Q8NI35; assay: holdup assay; design: key: below the threshold = too weak to quantify, mostly under pKd 3.1 to 4; details: plain residues with an end cap or a label only (N-terminal biotin on a linker: ado-ado)
Sequence (Q8NI35 547-651): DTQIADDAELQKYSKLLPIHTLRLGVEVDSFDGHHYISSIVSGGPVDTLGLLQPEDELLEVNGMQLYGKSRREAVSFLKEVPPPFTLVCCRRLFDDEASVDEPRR

Q: How did the pKd turn out when B1 was run?
A: Its pKd is “below the threshold”.

Q: How did the pKd turn out when B2 was run?
A: The pKd was “below the threshold”.

biological target: T11, GRIP1_2, Q9Y3R0; assay: holdup assay; design: key: below the threshold = too weak to quantify, mostly under pKd 3.1 to 4; details: plain residues with an end cap or a label only (N-terminal biotin on a linker: ado-ado)

Q: For B1, which pKd is on record?
A: Its pKd is “below the threshold”.

Q: B2 was tested. Which pKd did it give?
A: The pKd was “below the threshold”.
